# “Also recorded” adds a separate entry of the source. Peptide text beside a SMILES is read from it. * marks the point of attachment. X1 = CC1(C)C(/C=C/C=C/C=C/C=C2/N(CCCCCC(=O)NCCN3C(=O)CC(*)C3=O)c3ccc4ccccc4c3C2(C)C)=[N+](CCCCS(=O)(=O)[O-])c2ccc3ccccc3c21
# Tests used:
# [1] = Imaging of blood vessels in mice; type: in vivo, athymic female nude mice; details: 2.5 nmol single tail vein injection, NIR imaging of leg and ear, five animals
# Procedure: Single tail vein administrations of 2.5 nmol of ICG-Cys or pHLIP ICG in sterile PBS or PBS with 5% DMSO or 5% Ethanol (vol:vol) (volume of the injection was 100 μl) were given to athymic female nude mice (strain Hsd Athymic Nude-Foxn1nu) ranging in age from 5 to 6 weeks (obtained from Envigo RMS Inc). Mice were under gas anesthesia, and imaging of mouse leg and ear was performed immediately and at different time points (from 5 min till 120 min) after administration of ICG-Cys or pHLIP ICG using the Stryker 1558 AIM clinical imaging system with L10 AIM Light Source, 1588 AIM Camera and a 10 mm scope and a Novadaq imaging system. Five animals per construct were used in the study.
# [2] = Follow up 7-days repeat i.v. toxicity in male B6D2F1 mice (GLP); type: in vivo
# Procedure: The purpose of this GLP study performed at MSK was to assess the acute and delayed toxicity on the male reproductive system of mice of a repeat administration of pHLIP ICG at different concentrations. The pHLIP ICG was administered once/day for 7 consecutive days.
# Throughout the study, body weights, clinical signs, and histopathology were collected.
# [3] = Peripheral blood micronucleus test in rats (GLP); type: in vivo, Sprague Dawley rats
# Procedure: The objective of this GLP study performed at CRL was to determine the potential genotoxicity of pHLIP ICG when given by i.v. bolus injection to rats using the peripheral blood micronucleus test.
# In order to determine the maximum tolerated dose, a dose-range finding test was performed prior to the main test, where male and female rats (3 animals/sex) were administered a single dose of pHLIP ICG by i.v. injection. The doses evaluated were 14 mg/kg and 25 mg/kg using 5% EtOH in PBS, pH 7.4 as the vehicle.
# Blood was collected for micronuclei evaluation at 45 hours post-dose (Groups 3 to 7), and 69 hours post-dose (Groups 3 and 7). The proportion of immature erythrocytes among total erythrocytes in the peripheral blood (%RETs) and the percentage of micronucleated reticulocytes (%MN-RETs) in the NC group were within the laboratory historical negative control range. […] The results from both NC and PC groups confirmed the validity of the assay.
# [4] = Local tolerance/irritancy in New Zealand white rabbits (GLP); type: in vivo; details: single 0.124 and 1.86 mg/kg, i.v., intra-arterial, perivenous and subcutaneous
# Procedure: The objective of this GLP study performed at CRL was to compare the i.v., intra-arterial, perivascular and subcutaneous routes for potential irritation following a single injection of pHLIP ICG in the rabbits.
# The following parameters and end points were evaluated in this study: clinical signs, local irritation assessment, body weights (for dose calculation only), and histopathology of the injection sites. There were no clinical signs, local irritation or any microscopic changes associated with pHLIP ICG during the study.
# [5] = pH-dependent insertion into POPC liposomes (circular dichroism at 222 nm); type: physicochemical; details: 5 µM pHLIP ICG, 750 µM POPC liposomes, CD 222 nm, 25.0°C, Henderson-Hasselbalch fit
# Procedure: (§1) POPC (1-palmitoyl-2-oleoyl-sn-glycero-3-phosphocholine, Avanti Polar Lipids, Inc.) liposomes were used in biophysical measurements to mimic cell membranes and investigate the pHLIP ICG interactions with lipid bilayers. Large unilamellar vesicles (LUVs) were prepared by extrusion. POPC dissolved in chloroform was desolvated in a rotary evaporator and placed under high vacuum for 2 hours to create a phospholipid film. Lipids were then rehydrated in phosphate buffer (pH8) and repeatedly extruded through membranes with a pore size of 100 nm to make LUVs.
# Circular dichroism (CD) measurements were employed to monitor the pH-dependent insertion of pHLIP ICG into the membrane of POPC liposomes and the formation of helical structure. […] CD spectra were recorded from 200 to 260 nm with steps of 1 nm. The pH-dependent insertion of pHLIP ICG into the lipid bilayer of POPC liposomes was studied by monitoring the changes in the molar ellipticity (measured in millidegrees) at 222 nm as a function of pH. After the addition of aliquots of citric acid, the pHs of solutions containing 5 μM pHLIP ICG and 750 µM POPC liposomes were measured using an Orion PerHecT ROSS Combination pH Micro Electrode and an Orion Dual Star pH and ISE Benchtop Meter before and after each spectrum measurement to ensure that equilibrium is achieved. […]
# [6] = Pharmacological safety assessment on the central nervous system (FOB) in rats (GLP); type: in vivo, Sprague Dawley rats; details: single i.v. bolus 0.218, 0.248, 3.72 and 7.44 mg/kg, up to 24 h post-dose
# Procedure: The objective of this GLP study performed at CRL was to evaluate the pharmacological effects of pHLIP ICG on the central nervous system following a single i.v. bolus injection in rats.
# Functional observation battery (FOB) tests were performed once prior to dosing and again at 5 minutes, 3 and 24 hours post-dose and included the following assessments: palpebral closure, eye prominence, pupil size, pupillary response, lacrimation, salivation, body tone, extensor thrust, pinna reflex, tactile reflex, overall animal reactivity, auricular startle, air righting reflex, body temperature (rectal). Additional evaluations consisted of mortality and clinical observations.
# [7] = Kinetics of insertion into POPC liposomes (stopped-flow tryptophan fluorescence); type: physicochemical; details: pH drop from pH 8 to pH 5, Trp fluorescence, bi-exponential fit, about 15% of final adjustment
# Procedure: as §1
# To follow pHLIP ICG insertion into the lipid bilayer of POPC liposomes in real-time, kinetics measurements were performed using a SFM-300 mixing system (Bio-Logic Science Instruments) in combination with a MOS-450 spectrometer with its temperature control set to 25.0°C. pHLIP ICG pre-mixed with POPC liposomes in phosphate buffer at pH8 were mixed (5 ms dead time) with acid to drop the pH from pH8 to pH5 and promote pHLIP peptide insertion into the bilayers. The insertion process was monitored by recording changes of the tryptophan fluorescence of pHLIP peptide excited at 295 nm and using a cut off filter at 320 nm.
# [8] = male rats, single i.v. 6.25, 12.5 and 25 mg/kg
structure (smiles),measurement,setting,value
CC(C)C[C@H](NC(=O)[C@H](Cc1ccc(O)cc1)NC(=O)[C@H](C)NC(=O)[C@H](CCCNC(=N)N)NC(=O)[C@H](Cc1c[nH]c2ccccc12)NC(=O)[C@@H]1CCCN1C(=O)[C@H](CC(N)=O)NC(=O)[C@H](CCC(N)=O)NC(=O)[C@H](CC(=O)O)NC(=O)[C@H](CC(=O)O)NC(=O)[C@H](CSC1CC(=O)N(CCNC(=O)CCCCCN2/C(=C/C=C/C=C/C=C/C3=[N+](CCCCS(=O)(=O)[O-])c4ccc5ccccc5c4C3(C)C)C(C)(C)c3c2ccc2ccccc32)C1=O)NC(=O)[C@H](C)N)C(=O)N[C@@H](CC(=O)O)C(=O)N[C@@H](CC(C)C)C(=O)N[C@@H](CC(C)C)C(=O)N[C@@H](Cc1ccccc1)C(=O)N1CCC[C@H]1C(=O)N[C@H](C(=O)N[C@@H](CC(=O)O)C(=O)N[C@H](C(=O)N[C@@H](CC(C)C)C(=O)N[C@@H](CC(C)C)C(=O)N[C@@H](CC(C)C)C(=O)N[C@@H](CC(=O)O)C(=O)N[C@@H](CC(C)C)C(=O)N[C@@H](CC(C)C)C(=O)N[C@@H](Cc1c[nH]c2ccccc12)C(=O)N[C@@H](C)C(=O)O)[C@@H](C)O)[C@@H](C)O (stereo partly shown) [pHLIP ICG] (H-AC(X1)DDQNPWRAYLDLLFPTDTLLLDLLWA-OH),Time for which blood vessels are clearly revealed,[1],up to 2 h
same,"Toxicity finding, male reproductive system","[2]; male B6D2F1 mice, 4.92, 7.38, 12.3 mg/kg/day i.v. for 7 days","well tolerated, with no indication of germ cell degeneration or other toxicity to the male reproductive system"
same,NOAEL,"[2]; male and female mice, 7 days repeated i.v. administration",above 12.3 mg/kg/day
same,Genotoxic activity (%MN-RETs),[3]; [8],did not induce cytogenetic damage; also recorded: showed no evidence of genotoxic activity
same,Reduction in %RETs (cytotoxicity),[3]; [8],No substantial reduction
same,Clinical signs in dose-range finding test,"[3]; rats 3 animals/sex, single i.v. 14 mg/kg and 25 mg/kg",no adverse clinical signs were noted
same,Local tolerance,[4],well tolerated; also recorded: well-tolerated and did not result in any pHLIP ICG-related changes
same,Midpoint of the transition (pK) of insertion into liposomes,[5],6.3 pH
same,Effect on the central nervous system (FOB),[6],had no observed effect on the central nervous system
same,"Rate of insertion into lipid bilayer, slow component",[7],0.077 s⁻¹
